Patent US20250382354A1

What was measured:
Test in all cases: peptide ELISA
[1] = molecular target: SARS-CoV-2 HR2 peptide (SARS-CoV-2), P0DTC2
[2] = molecular target: MHV HR2 peptide (MHV)
[3] = molecular target: HKU5 HR2 peptide (HKU5), A3EXD0
[4] = molecular target: HKU9 HR2 peptide (HKU9), A3EXG6
[5] = molecular target: HKU4 HR2 peptide (HKU4), A3EX94
[6] = molecular target: SADS HR2 peptide (SADS)
[7] = molecular target: NL63 FP peptide (NL63), Q6Q1S2
[8] = molecular target: SARS-CoV FP peptide (SARS-CoV), P59594
[9] = molecular target: 229E FP peptide (229E)
[10] = molecular target: MERS FP peptide (MERS), K9N5Q8
[11] = molecular target: Hu_PDCoV FP peptide (Hu_PDCoV)
[12] = molecular target: OC43 FP peptide (OC43), P36334
[13] = molecular target: SARS-CoV-2 FP peptide (SARS-CoV-2)
[14] = molecular target: HKU1 FP peptide (HKU1)
[15] = molecular target: FCoV-KU2 FP peptide (FCoV-KU2)
[16] = molecular target: CCoV_HuPn FP peptide (CCoV_HuPn)

| Binder | EC50 [1] [µg/mL] | EC50 [2] [µg/mL] | EC50 [3] [µg/mL] | EC50 [4] [µg/mL] | EC50 [5] [µg/mL] | EC50 [6] [µg/mL] | EC50 [7] [µg/mL] | EC50 [8] [µg/mL] | EC50 [9] [µg/mL] | EC50 [10] [µg/mL] | EC50 [11] [µg/mL] | EC50 [12] [µg/mL] | EC50 [13] [µg/mL] | EC50 [14] [µg/mL] | EC50 [15] [µg/mL] | EC50 [16] [µg/mL] |
| --- | --- | --- | --- | --- | --- | --- | --- | --- | --- | --- | --- | --- | --- | --- | --- | --- |
| CV3-25 (antibody) chain 1: QVQLVESGAEVKKPGESLKISCKGSGYTFTRYWIGWVRQMPGKGLEWMGIIYPGDSDTRYSPSFQGHVTISADKSISTAYLQWNSLKASDTAMYYCARLPQYCSNGVCQRWFDPWGQGTLVTVSS chain 2: EIVLTQSPSSVSASVGDRVTITCRASQGISSWLAWYQQKPGKAPKLLIYAASSLQSGVPSRFSGSGSGTDFTLTISSLQPEDFATYYCQQGNSFPYTFGQGTNLEIK | 0.00968 | 0.0239 | 1.57 | 0.358 |  |  |  |  |  |  |  |  |  |  |  |  |
| hr2.094 (antibody, V domains shown) VH: EVQLVESGGGLVQPGGSLRLSCAASGFTFSTFWMTWVRQAPGKGLEWVANIKSDGSEKYYVDSVKGRFTISRDNAKNSLYLQMNSLRAEDTAVYYCATWFGLHWGQGTLVTVSS VL: DIVMTQSPDSLAVSLGERASINCKSSQTVLYSSNNKNYLAWYQQKPGQPPKLLIHWASTRDSGVPDRFSGSGSGTDFTLTISSLQAEDVAVYYCQQYHRIPWTFGRGTKVEIK | 0.0835 | 0.0189 | 0.0192 | 0.227 | 0.0157 |  |  |  |  |  |  |  |  |  |  |  |
| hr2.015 (antibody, V domains shown) VH: QVQLVQSGAEVKKPGASVKVSCKASGYTFSSYYVNWVRQAPGQGLEWLGIINRSGSSTIYAQKFQGRVTMTRDTSTSTVYLELSSLRSEDTAVYYCARDQDHALHWGQGTLVTVSS VL: QSVLTQPPSVSAAPGQKVTISCSGSSSNIGSNYVSWYQQLPGTAPKLLIYDNSERPSGIPDRFSGSRSGTSATLGITGLQTGDEADYYCGTWDTSLSAWVFGGGTKLTVL | 0.047 | 0.0543 | 0.0467 |  | 0.05 | 0.0731 |  |  |  |  |  |  |  |  |  |  |
| fp.004 (antibody, V domains shown) VH: VQLVESGGGVVQPGTSLRLSCVASGFTFSNYAMHWVRQAPGKGLEWVAIISFDTRNTASAASVKGRFNISRDNSKNSLYLQMNSLRPEDTGVYYCARDLFLSDYDSRGYDPITGGFDCWGQGTLVTVSS VL: EIVMTQSPAALSVSPGEGATLSCRASQSVGSRLAWYQQKLGRPPRLLIYGASTRATGIPARFSGSGSGTEFTLTISSLQSEDFAVYYCQQYNDWPLLTFGGGTKVKIK |  |  |  |  |  |  | 0.0267 | 0.03 | 0.0202 | 0.0386 | 0.0343 | 0.0222 | 0.0352 | 0.0272 |  |  |
| fp.002 (antibody, V domains shown) VH: VQLVESGGGVVQPGTSLRLSCAGSGFNFDNYAIHWVRQAPGQGLEWVAIISYEARNKKYAGSVTGRFSISRDNSKSMVYLQMDSLRGEDTAVYYCARDLFLSDYDRSGYDPTRGGFDLWGQGTLVTVSS VL: EIVMTQSPATLSVSPGERATLSCRASQSVSSSLAWYQHKLGQAPRLLIYGASTRATGIPGRFSGSGSGTEFTLTISSLQSEDVAIYYCQQYGDWPLVTFGGGTKVEIK |  |  |  |  |  |  | 0.0245 | 0.0285 | 0.0176 | 0.0358 | 0.0215 | 0.0211 | 0.032 | 0.0256 |  |  |
| fp.005 (antibody, V domains shown) VH: VQLVESGGGVVQPGNSLRLSCAASGFRFNNYAMHWVRQAPGKGLEWVAIISYEARNEKYADSVKGRFSISRDNAKNTLYLQMNSLRADDTGVYYCARDLFLSDYDTSGYDRTRGGFDYWGQGALVTVSS VL: EIVMTQSPATLSVSPGERATLSCRASQSVSNGLAWYQHRFGQPPRLLIYGASTRATGIPTRFSGSGSGTEFTLTISSLQSEDFAVYYCQQYDDWPLITFGGGTKVEIK |  |  |  |  |  |  | 0.0231 |  | 0.0175 | 0.04 |  | 0.0244 | 0.0295 |  | 0.028 |  |
| fp.003 (antibody, V domains shown) VH: VQLVESGGGVVQPGTSLRLSCTASGFSFSNYAMHWVRQAPGKGLEWVAIISFDTRNKEFADSVKGRFSISRDNSKNSLNLQMNSLRPEDTGVYYCARDLFLSDYDSRGYEPSRGGFDYWGQGTLVTVSS VL: EIVMTQSPATLSVSPGERATLSCRASQSVSSSLAWYQQKLGQPPRLLIYGASTRATGIPARFSGSGSGTEFTLTISSLKSEDSAVYYCQQYNDWPLLSFGGGTKVEIK |  |  |  |  |  |  | 0.0249 | 0.0285 | 0.0201 | 0.0349 |  | 0.0149 | 0.0369 | 0.0238 | 0.0295 |  |
| fp.006 (antibody, V domains shown) VH: VQLVESGGGVVQPGGSLRLSCAASGFNFNNYALHWVRQAPGKGLEWVAIISYEARNKKYGVSVMGRFSISRDNSKSIMYLEMNSLRVEDTGVYYCARDLFLSDYDRSGYDPTRGGFDHWGQGTLVTVSS VL: EIVMTQSPATLSVSPGERATLSCRASQSVSSSLAWYQHRFGQAPRLLISGASTRATGIPGRFSGSGSGTEFTLTISSLQSEDVAVYYCQQYGDWPLVTFGGGTKVEIK |  |  |  |  |  |  | 0.0144 | 0.0157 | 0.0121 | 0.0228 |  | 0.0134 | 0.0331 | 0.0168 | 0.0149 |  |
| fp.009 (antibody, V domains shown) VH: VQLVESGGGVVQPGTSLTLSCEASGFTFSNYAMHWVRQAPGKGLEWVAIISFDTRNKKFAGSVQGRFSISRDNAKNSIYLQMNNLRPEDTGIYYCARDVFLSDYDSRGFDRTRGGFDYWGQGTLVTVSS VL: EIVMTQSPATLSVSPGEKATLSCRASESVGSSLAWYQQKLGQAPRLLIYGASTRATGIPARFSGSGSGAEFTLTISSLQSEDFAIYYCQQYGDWPLLTFGGGTKVEIK |  |  |  |  |  |  | 0.0214 | 0.0251 | 0.0236 | 0.0346 | 0.0276 | 0.026 | 0.038 | 0.0241 |  | 0.021 |
